Results: patent US20190345206A1 (MOMENTA PHARMACEUTICALS, published 2019)

What was measured:
FcγRI = biological target: T1, FcγRI (UniProt P12314 16-374, limits assumed); test: cell-based TR-FRET competition assay (CISBIO kit), FcγRI cells
T1 construct: whole, on cells; also called CD64
Protocol: (§1) A cell-based binding assay was utilized to confirm that the amino acid modifications at positions I253, e.g., I253A, and R292, e.g., R292P, were specific to the intended receptors, e.g., reduced binding affinity to the FcRn receptor and FcγRIIb receptor, respectively. Relative binding of Fc constructs and controls to Fc gamma receptors (FcγRs) was measured using cell-based homogeneous time-resolved fluorescence resonance energy transfer (TR-FRET) competition assays (CISBIO®) kits for FcγRI, FcγRIIa H131, FcγRIIb, and FcγRIIIa V158. Assay reagents were prepared according to the manufacturer's instructions. A 10-point, 3-fold serial dilution series, plus one blank per sample, was generated using an automated liquid handler (Freedom EVOware 150, TECAN®). Assay plates were read on a PHERAstar fluorescent reader (BMG Labtech GmbH) at 665 and 620 nm. An IgG1 sample was used as a control.

FcγRIIIa V158 = biological target: T2, FcγRIIIa V158 (UniProt P08637 17-254, limits assumed); test: cell-based TR-FRET competition assay (CISBIO kit), FcγRIIIa V158 cells
T2 construct: whole, on cells; V158 is the allotype as printed (mature numbering); also called CD16a
T2 sequence (P08637 17-254 F176V limits assumed): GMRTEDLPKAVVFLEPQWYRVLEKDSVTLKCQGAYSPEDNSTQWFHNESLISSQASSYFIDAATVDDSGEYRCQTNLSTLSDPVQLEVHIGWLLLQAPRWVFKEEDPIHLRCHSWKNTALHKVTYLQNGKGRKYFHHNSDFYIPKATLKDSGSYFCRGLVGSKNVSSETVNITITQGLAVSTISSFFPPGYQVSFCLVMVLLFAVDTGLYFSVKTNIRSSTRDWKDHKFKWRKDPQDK
Protocol: as §1

Recombinant human FcRn = biological target: T3, Recombinant human FcRn (human, UniProt P55899 24-297; P61769 21-119, limits assumed); test: SPR at pH 6.0; human FcRn in solution over Fc construct captured by goat anti-human IgG
T3 construct: also called neonatal Fc receptor
T3 sequence (P55899 24-297 limits assumed, chain 1 of 2): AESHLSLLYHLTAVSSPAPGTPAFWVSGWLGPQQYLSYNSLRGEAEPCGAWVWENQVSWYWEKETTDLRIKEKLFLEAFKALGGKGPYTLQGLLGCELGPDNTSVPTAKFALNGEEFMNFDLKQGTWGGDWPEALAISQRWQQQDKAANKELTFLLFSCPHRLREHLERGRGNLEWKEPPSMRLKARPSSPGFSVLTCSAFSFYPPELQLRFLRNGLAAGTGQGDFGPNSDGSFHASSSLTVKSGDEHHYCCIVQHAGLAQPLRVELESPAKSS
T3 sequence (P61769 21-119 limits assumed, chain 2 of 2): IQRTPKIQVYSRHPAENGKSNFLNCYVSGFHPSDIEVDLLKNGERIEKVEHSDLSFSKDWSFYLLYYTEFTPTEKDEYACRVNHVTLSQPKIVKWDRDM
Text: To assess the impact of the amino acid modifications at position I253, e.g., I253A, and R292, e.g., R292P, on FcRn binding a surface plasmon resonance (SPR) binding experiment was designed to measure the affinity and normalized binding level of solution-phase human FcRn to sensor-bound Fc constructs at pH 6.0. A goat anti-human IgG was immobilized on reference and test sensor surfaces using amine coupling chemistry. Fc constructs were captured on the test sensor surface. Recombinant human FcRn was flowed over the sensor surface in a dilution series with a top concentration of 1.0 μM. The sensor surface was regenerated at the end of each cycle with 10 mM glycine pH 1.7. Double-reference subtracted sensorgrams were subjected to equilibrium binding analysis; the maximum binding level (RMax) and the equilibrium dissociation constant (KD) were estimated. The normalized maximum binding level was calculated by dividing the RMax by the FC-construct capture level. Construct 16 was captured at the same level as construct 4, […] (FIG. 20).

T1 sequence (P12314 16-374 limits assumed): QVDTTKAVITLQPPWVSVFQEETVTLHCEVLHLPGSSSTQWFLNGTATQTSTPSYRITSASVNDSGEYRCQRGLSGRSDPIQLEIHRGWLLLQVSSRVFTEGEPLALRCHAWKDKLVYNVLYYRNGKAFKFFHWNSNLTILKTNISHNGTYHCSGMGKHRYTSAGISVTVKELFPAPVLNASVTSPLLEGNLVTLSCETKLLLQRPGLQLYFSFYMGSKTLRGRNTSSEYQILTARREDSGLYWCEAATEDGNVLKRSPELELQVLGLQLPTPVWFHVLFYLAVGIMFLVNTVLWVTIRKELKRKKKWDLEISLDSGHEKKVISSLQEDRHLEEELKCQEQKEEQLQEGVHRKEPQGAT

B1: Fc construct 18 (other)
chain 1: DKTHTCPPCPAPELLGGPSVFLFPPKPKDTLMASRTPEVTCVVVDVSHEDPEVKFNWYVDGVEVHNAKTKPPEEQYNSTYRVVSVLTVLHQDWLNGKEYKCKVSNKALPAPIEKTISKAKGQPREPQVYTLPPCRDKLTKNQVSLWCLVKGFYPSDIAVEWESNGQPENNYKTTPPVLDSDGSFFLYSKLTVDKSRWQQGNVFSCSVMHEALHNHYTQKSLSLSPGKGGGGGGGGGGGGGGGGGGGGDKTHTCPPCPAPELLGGPSVFLFPPKPKDTLMISRTPEVTCVVVDVSHEDPEVKFNWYVDGVEVHNAKTKPPEEQYNSTYRVVSVLTVLHQDWLNGKEYKCKVSNKALPAPIEKTISKAKGQPREPQVYTLPPSRDELTKNQVSLTCLVKGFYPSDIAVEWESNGQPENNYKTTPPVLKSDGSFFLYSDLTVDKSRWQQGNVFSCSVMHEALHNHYTQKSLSLSPG
chain 2: DKTHTCPPCPAPELLGGPSVFLFPPKPKDTLMASRTPEVTCVVVDVSHEDPEVKFNWYVDGVEVHNAKTKPPEEQYNSTYRVVSVLTVLHQDWLNGKEYKCKVSNKALPAPIEKTISKAKGQPREPQVCTLPPSRDELTKNQVSLSCAVDGFYPSDIAVEWESNGQPENNYKTTPPVLDSDGSFFLVSKLTVDKSRWQQGNVFSCSVMHEALHNHYTQKSLSLSPG
notes: Construct 4 with R292P in all three Fc domains and I253A in the two N-terminal Fc domains; also called Q1
binding result (FcγRI): binds
binding result (FcγRIIIa V158): binds

B2: Fc construct 19 (other)
chain 1: DKTHTCPPCPAPELLGGPSVFLFPPKPKDTLMASRTPEVTCVVVDVSHEDPEVKFNWYVDGVEVHNAKTKPPEEQYNSTYRVVSVLTVLHQDWLNGKEYKCKVSNKALPAPIEKTISKAKGQPREPQVYTLPPCRDKLTKNQVSLWCLVKGFYPSDIAVEWESNGQPENNYKTTPPVLDSDGSFFLYSKLTVDKSRWQQGNVFSCSVMHEALHNHYTQKSLSLSPGKGGGGGGGGGGGGGGGGGGGGDKTHTCPPCPAPELLGGPSVFLFPPKPKDTLMASRTPEVTCVVVDVSHEDPEVKFNWYVDGVEVHNAKTKPPEEQYNSTYRVVSVLTVLHQDWLNGKEYKCKVSNKALPAPIEKTISKAKGQPREPQVYTLPPSRDELTKNQVSLTCLVKGFYPSDIAVEWESNGQPENNYKTTPPVLKSDGSFFLYSDLTVDKSRWQQGNVFSCSVMHEALHNHYTQKSLSLSPG
chain 2: DKTHTCPPCPAPELLGGPSVFLFPPKPKDTLMASRTPEVTCVVVDVSHEDPEVKFNWYVDGVEVHNAKTKPPEEQYNSTYRVVSVLTVLHQDWLNGKEYKCKVSNKALPAPIEKTISKAKGQPREPQVCTLPPSRDELTKNQVSLSCAVDGFYPSDIAVEWESNGQPENNYKTTPPVLDSDGSFFLVSKLTVDKSRWQQGNVFSCSVMHEALHNHYTQKSLSLSPG
notes: Construct 4 with R292P and I253A in all three Fc domains; also called Q2
binding result (Recombinant human FcRn): no binding (tested: top concentration of 1.0 µM)
